# Reference: the Human Domainome abundance scans (Beltran et al. 2025)
# ± gives the uncertainty stated by the source.
# B1: V(D)J recombination-activating protein 2, residues 415 to 491; numbered along this chain, P55895 (parent)
# chain: YWITCCPTCDVDINTWVPFYSTELNKPAMIYCSHGDGHWVHAQCMDLAERTLIHLSAGSNKYYCNEHVEIARALHTP
# Variants of: B1
# Experiment: abundance fitness (aPCA) (normalised: wild type 0, dead -1); higher = more abundant; growth selection in yeast, the domain comes from the species named
# Details: Homo sapiens
row,Variant,abundance fitness
1,YWITCCPTCDVDINTWVPFYSTELNKPAMIYCSHGDGHWVHAQCMDLAERTLIHLSAGSNKYACNEHVEIARALHTP,-0.048 ± 0.061
2,YWITCCPTCDVDINTWVPFYSTELNKPAMIYCSKGDGHWVHAQCMDLAERTLIHLSAGSNKYYCNEHVEIARALHTP,-0.211 ± 0.14
3,YWITCCPTCDVDINTWVPFYSTELNKPAMIYCSTGDGHWVHAQCMDLAERTLIHLSAGSNKYYCNEHVEIARALHTP,-0.234 ± 0.11
4,YWITCCPTCDVDINTWVPFYSTELNKPAMIYCSHGDGHWVHAQCMDLAERTLIHLSAGSNKYYCNEGVEIARALHTP,-0.116 ± 0.044
5,YWITCCPTCDVDINTWVPFYSTELNKPAMIYCSHGDGHWVHAQCMDLAERTLIHQSAGSNKYYCNEHVEIARALHTP,0.027 ± 0.074
6,YWITCCPTCDVDINTWVPFYSTELNKPAMIYCSHGDGHWVHAQCMDLAERTLIHCSAGSNKYYCNEHVEIARALHTP,0.04 ± 0.099
7,YWITCCPTCDVDINTWVPFYSTELNKPAMIYCSHGDGHWVHAQCMDLAERTLIHKSAGSNKYYCNEHVEIARALHTP,-0.019 ± 0.087
8,YWITCCPTCDVDINTWVPFYSTELNKPAMIYCSHGDPHWVHAQCMDLAERTLIHLSAGSNKYYCNEHVEIARALHTP,0.076 ± 0.23
9,YWITCCPTCDVDINTWVPFYSTELNKPAMIYCSHGDGHWVHAQCMDLAERTLIHLSAGSNKYYCNEHVVIARALHTP,-0.14 ± 0.2
10,YWITCCPTCDVDINTWVPFYSTELNKPAMIYLSHGDGHWVHAQCMDLAERTLIHLSAGSNKYYCNEHVEIARALHTP,-0.999 ± 0.13
11,YWITCCPTCDVDRNTWVPFYSTELNKPAMIYCSHGDGHWVHAQCMDLAERTLIHLSAGSNKYYCNEHVEIARALHTP,0.114 ± 0.14
12,YWITCCPTCDVDINTWVPFYSTELNKPAMIYCSHGDGHWVHAVCMDLAERTLIHLSAGSNKYYCNEHVEIARALHTP,-0.116 ± 0.12
13,YWINCCPTCDVDINTWVPFYSTELNKPAMIYCSHGDGHWVHAQCMDLAERTLIHLSAGSNKYYCNEHVEIARALHTP,0.012 ± 0.091
14,YWITCCPTCDVDINTWVPFYSTELNKPAMIYCSHGDGHWVHAQCMDLAERTLIHLSAGSNKYYCNMHVEIARALHTP,0.048 ± 0.11
15,YWITCCPTCDVDINTWVPFNSTELNKPAMIYCSHGDGHWVHAQCMDLAERTLIHLSAGSNKYYCNEHVEIARALHTP,-0.09 ± 0.25
16,YWITCCPTCDVDINTWVPFYDTELNKPAMIYCSHGDGHWVHAQCMDLAERTLIHLSAGSNKYYCNEHVEIARALHTP,-0.17 ± 0.26
17,YWITCCLTCDVDINTWVPFYSTELNKPAMIYCSHGDGHWVHAQCMDLAERTLIHLSAGSNKYYCNEHVEIARALHTP,-0.065 ± 0.2
18,YWITCCDTCDVDINTWVPFYSTELNKPAMIYCSHGDGHWVHAQCMDLAERTLIHLSAGSNKYYCNEHVEIARALHTP,0.002 ± 0.28

row,Variant,abundance fitness
1,YWITCCPTCDVDINTWVPFYSTELNKPAMIYCSHGDGHWVHAQCMDLAERTLIHLSAGSNQYYCNEHVEIARALHTP,0.097 ± 0.36
2,YWITCCPTCDVDINTWVPFYSTELNKPAMIYCSHGDGHWVHAQCMDLAERTLIHLSAGSNTYYCNEHVEIARALHTP,-0.045 ± 0.3
3,YWITCCPTCMVDINTWVPFYSTELNKPAMIYCSHGDGHWVHAQCMDLAERTLIHLSAGSNKYYCNEHVEIARALHTP,-0.325 ± 0.47
4,YWITCCPTCDVDINTWVPFYSTELNKPAMIYCSHGCGHWVHAQCMDLAERTLIHLSAGSNKYYCNEHVEIARALHTP,-0.092 ± 0.26
5,YWITCCPTCDVDINTWVPFYSTELNKPAMIYCSHGSGHWVHAQCMDLAERTLIHLSAGSNKYYCNEHVEIARALHTP,-0.149 ± 0.14
6,YWITCCPTCDVDINTWVPFYSTELNKPAMIYCSHGFGHWVHAQCMDLAERTLIHLSAGSNKYYCNEHVEIARALHTP,-0.217 ± 0.16
7,YWITCCPTCDVDINTWVPFYSTELNKPAMIYCSHGDGHWVHAQCMDLAERTLIHLSAGSNKYYCNEHVEIVRALHTP,-0.003 ± 0.051
8,YWITCCPTCDVDINTWVPFYSTELNKPAMIYCSHGDGHWVHAQCMDLAERTLIHLSAGSNKYYCNEHVEIKRALHTP,-0.225 ± 0.1
9,YWITCCPTCDVDINTWVPFYSTELNKPAMIYCSHGDGHWVHAQCMDLAERTLIHLSAGSNKYYCNEHVEIMRALHTP,-0.12 ± 0.1
10,YWITCCPTCDVDINTWVPFYSTELNKPAMIYCSHGDGHWVHAQCMDLAERTLIHLSAGSNKYYCNEHVEIQRALHTP,0.044 ± 0.069
11,YWITCCPTCDVDINTWVPFYSTELNKPAMIYCSHGDGHWVHAQCMDLAERTLIHLSAGSNKYYCNEHVEITRALHTP,0.09 ± 0.1
12,YWITCCPTCDVDINTWVPFYSTELNKPAMIYCSHGDGHWVHAQCMDLAERTLIHLSAGSNKYYCNEHVEIARALVTP,-0.075 ± 0.08
13,QWITCCPTCDVDINTWVPFYSTELNKPAMIYCSHGDGHWVHAQCMDLAERTLIHLSAGSNKYYCNEHVEIARALHTP,-0.283 ± 0.22
14,TWITCCPTCDVDINTWVPFYSTELNKPAMIYCSHGDGHWVHAQCMDLAERTLIHLSAGSNKYYCNEHVEIARALHTP,-0.098 ± 0.25
15,YWITCCPTCDVDINVWVPFYSTELNKPAMIYCSHGDGHWVHAQCMDLAERTLIHLSAGSNKYYCNEHVEIARALHTP,0.015 ± 0.34
16,YWITCCPTCDVDINRWVPFYSTELNKPAMIYCSHGDGHWVHAQCMDLAERTLIHLSAGSNKYYCNEHVEIARALHTP,-0.474 ± 0.5
17,YWITCCPTCDVDINTWVPFYSTELNKPAMIYCSHGDGHWVHAQCMDLAERYLIHLSAGSNKYYCNEHVEIARALHTP,-0.068 ± 0.26
18,YWITCCPTCDVDINTWVPFYSTELNKPAMIYCSHGDGHWVHAQCMDLAERLLIHLSAGSNKYYCNEHVEIARALHTP,0.016 ± 0.058
